Measurements from the Immune Epitope Database (IEDB).

How the values were obtained:
Assay in all cases: IEDB peptide-MHC binding, purified MHC/competitive/radioactivity; filed as Kd, often an IC50 or EC50 that approximates it; ≥ and ≤ were set here for values at or beyond the usual limits of such assays
[1] = molecular target: HLA-A*03:01
[2] = molecular target: HLA-A*31:01
[3] = molecular target: HLA-A*33:01
[4] = molecular target: HLA-A*68:01
[5] = molecular target: HLA-A*11:01
[6] = molecular target: HLA-A*02:01
[7] = molecular target: HLA-B*07:02; conditions: source organism: Plasmodium falciparum 3D7
[8] = molecular target: HLA-B*35:01; conditions: source organism: Plasmodium falciparum 3D7
[9] = molecular target: HLA-B*51:01; conditions: source organism: Plasmodium falciparum 3D7
[10] = molecular target: HLA-B*53:01; conditions: source organism: Plasmodium falciparum 3D7
[11] = molecular target: HLA-B*54:01; conditions: source organism: Plasmodium falciparum 3D7
[12] = molecular target: HLA-A*02:02; conditions: source organism: Plasmodium falciparum
[13] = molecular target: HLA-A*02:03; conditions: source organism: Plasmodium falciparum
[14] = molecular target: HLA-A*02:06; conditions: source organism: Plasmodium falciparum
[15] = molecular target: HLA-A*68:02; conditions: source organism: Plasmodium falciparum
[16] = source organism: Plasmodium falciparum 3D7
[17] = source organism: Plasmodium falciparum

Sequence	Kd [1, 17] [nM]	Kd [5, 17] [nM]	Kd [2, 17] [nM]	Kd [3, 17] [nM]	Kd [4, 17] [nM]	other results
ALLACAGLAY	–	–	–	–	–	Kd [1, 16]: 355 nM; Kd [2, 16]: 5460 nM; Kd [3, 16]: 5090 nM; Kd [4, 16]: ≥ 10000 nM
FILVNLLIFH	733	1330	1960	397	–	–
FLIFFDLFLV	–	–	–	–	–	Kd [6, 16]: 12 nM
FLKENKLNK	145	3750	≥ 10000	2640	444	–
GLIMVLSFL	–	–	–	–	–	Kd [6, 17]: 22 nM
GTGSGVSSK	126	40	≥ 10000	≥ 10000	3480	–
GTGSGVSSKK	1100	353	≥ 10000	≥ 10000	≥ 10000	–
GVSENIFLK	151	5	2250	8290	10	–
HPSDGKCNL	–	–	–	–	–	Kd [7]: 275 nM; Kd [8]: ≥ 10000 nM; Kd [9]: ≥ 10000 nM; Kd [10]: 3320 nM; Kd [11]: ≥ 10000 nM
HVLSHNSYEK	407	200	≥ 10000	≥ 10000	–	–
IIRLHSDASK	–	–	–	–	–	Kd [1, 16]: 324 nM; Kd [5, 16]: ≥ 10000 nM; Kd [2, 16]: ≥ 10000 nM; Kd [3, 16]: ≥ 10000 nM; Kd [4, 16]: ≥ 10000 nM
ILSVSSFLFV	–	–	–	–	–	Kd [12]: 3580 nM; Kd [13]: 19 nM; Kd [14]: 587 nM; Kd [15]: 2100 nM
KILSVFFLA	18	3.2	7830	5920	8890	Kd [14]: 8 nM
KSLYDEHIK	≥ 10000	231	≥ 10000	≥ 10000	≥ 10000	–
KSLYDEHIKK	1000	29	≥ 10000	≥ 10000	≥ 10000	–
LLACAGLAY	–	–	–	–	–	Kd [2, 16]: ≥ 10000 nM; Kd [3, 16]: 6590 nM; Kd [4, 16]: 2500 nM
RINEEKHEK	786	40	486	≥ 10000	≥ 10000	–
RLHSDASKNK	–	–	–	–	–	Kd [1, 16]: 256 nM; Kd [5, 16]: 600 nM; Kd [2, 16]: ≥ 10000 nM; Kd [3, 16]: ≥ 10000 nM; Kd [4, 16]: ≥ 10000 nM
SLLSTNLPY	–	–	–	–	–	Kd [1, 16]: 1150 nM; Kd [5, 16]: 353 nM; Kd [2, 16]: ≥ 10000 nM; Kd [3, 16]: ≥ 10000 nM; Kd [4, 16]: ≥ 10000 nM
SLYDEHIKK	28	8.6	≥ 10000	≥ 10000	615	–
TPYAGEPAPF	–	–	–	–	–	Kd [9]: 15 nM; Kd [10]: 158 nM; Kd [11]: ≥ 10000 nM
VLLGGVGLVL	–	–	–	–	–	Kd [12]: ≥ 10000 nM
VLSHNSYEK	79	19	≥ 10000	≥ 10000	2860	–
VLYNTEKGR	282	3160	8570	–	1230	–
VTCGNGIQVR	6880	11	15	–	444	–
